# According to US20240425603A1 (Janssen / Centocor, published 2024):
# Values joined by “and” are separate entries in the source; they are usually repeats but may differ in a detail not shown here. Equal entries are not always repeated.
# T1: mouse VEGFR1 (soluble antigen of the KinExA and SPR affinity assays) (mouse, UniProt P35969 23-759, limits assumed)
# T1 sequence (looked up): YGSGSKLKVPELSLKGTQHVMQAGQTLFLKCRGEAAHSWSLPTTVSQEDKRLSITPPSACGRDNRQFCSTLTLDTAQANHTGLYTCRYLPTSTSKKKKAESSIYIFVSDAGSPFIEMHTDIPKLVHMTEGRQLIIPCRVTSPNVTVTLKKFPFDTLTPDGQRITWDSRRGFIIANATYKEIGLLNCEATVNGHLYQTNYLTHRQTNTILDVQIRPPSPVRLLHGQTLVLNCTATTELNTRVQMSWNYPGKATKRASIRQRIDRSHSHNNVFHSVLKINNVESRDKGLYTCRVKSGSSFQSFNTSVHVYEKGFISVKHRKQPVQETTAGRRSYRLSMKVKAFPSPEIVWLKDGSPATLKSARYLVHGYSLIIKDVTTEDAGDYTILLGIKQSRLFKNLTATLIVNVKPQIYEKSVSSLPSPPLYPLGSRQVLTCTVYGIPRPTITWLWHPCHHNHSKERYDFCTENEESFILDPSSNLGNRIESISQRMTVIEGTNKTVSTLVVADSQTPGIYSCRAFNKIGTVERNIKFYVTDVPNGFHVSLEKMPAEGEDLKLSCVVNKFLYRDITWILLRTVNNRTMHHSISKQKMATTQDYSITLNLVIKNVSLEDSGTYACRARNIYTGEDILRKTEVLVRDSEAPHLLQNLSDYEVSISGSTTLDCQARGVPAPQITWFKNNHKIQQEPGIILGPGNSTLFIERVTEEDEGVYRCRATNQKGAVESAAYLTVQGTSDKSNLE
# T2: Recombinant mouse VEGFR1-Fc (R&D Systems) (mouse, UniProt P35969 27-759, limits assumed)
# T2 construct: bought; not shown: Fc part of the bought fusion, not described
# T2 sequence (looked up): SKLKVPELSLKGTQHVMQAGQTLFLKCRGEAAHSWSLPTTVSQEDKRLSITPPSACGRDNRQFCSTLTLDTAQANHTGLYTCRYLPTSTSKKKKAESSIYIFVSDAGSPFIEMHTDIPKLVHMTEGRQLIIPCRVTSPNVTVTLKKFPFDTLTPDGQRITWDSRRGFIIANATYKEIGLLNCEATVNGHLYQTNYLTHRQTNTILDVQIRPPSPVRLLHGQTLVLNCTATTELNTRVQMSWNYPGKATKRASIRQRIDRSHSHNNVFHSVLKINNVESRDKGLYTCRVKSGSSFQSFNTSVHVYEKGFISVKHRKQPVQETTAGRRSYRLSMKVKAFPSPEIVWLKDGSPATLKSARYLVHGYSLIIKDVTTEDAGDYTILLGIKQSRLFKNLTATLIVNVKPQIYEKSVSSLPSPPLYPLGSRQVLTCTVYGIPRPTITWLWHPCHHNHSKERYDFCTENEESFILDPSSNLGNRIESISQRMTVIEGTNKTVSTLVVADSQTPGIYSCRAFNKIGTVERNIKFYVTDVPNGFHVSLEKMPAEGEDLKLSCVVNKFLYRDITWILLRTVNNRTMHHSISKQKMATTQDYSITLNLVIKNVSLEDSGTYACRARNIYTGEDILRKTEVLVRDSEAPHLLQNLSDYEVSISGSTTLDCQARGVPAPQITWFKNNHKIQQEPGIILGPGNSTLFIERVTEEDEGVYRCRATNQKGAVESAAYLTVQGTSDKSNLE
# B1: VGFB78 (antibody, human IgG1, lambda, L234A L235A, V domains shown)
# VH: EVQLLESGGGLVQPGGSLRLSCAASSFTFYNYDMTWVRQAPGKGLEWVAGIGTSGTDMYYADSVKGRFTISRDNSKNTLYLQMNSLRAEDTAIYYCAKDYYYYGMDVWGLGTTVTVSS
# VL: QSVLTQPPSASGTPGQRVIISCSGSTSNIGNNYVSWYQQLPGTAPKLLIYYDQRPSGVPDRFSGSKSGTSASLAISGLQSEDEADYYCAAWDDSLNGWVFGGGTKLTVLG
# notes: human IgG1 (L234A/L235A/D265S)
# B2: VGFB82 (antibody, human IgG1, lambda, L234A L235A, V domains shown)
# VH: EVQLLESGGGLVQPGGSLRLSCEASGFDFSTYAMNWVRQAPGKGLEWVATINSEGTITSHAPAVKGRFTISRDNSKNTAYVQMNSLRAEDSAVYYCSSTTGTTHGMDVWGRGTTVTVSS
# VL: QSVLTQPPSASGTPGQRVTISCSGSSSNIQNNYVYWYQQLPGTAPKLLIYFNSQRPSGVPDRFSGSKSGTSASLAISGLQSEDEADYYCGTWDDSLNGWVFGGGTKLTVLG
# notes: as for B1
# B3: VGFB54 (antibody, human IgG1, lambda, L234A L235A, V domains shown)
# VH: EVQLLESGGGSVQPGGSLRLSCTASGFNFEDYGMNWVRQAPGKGLDWVSSINRNGDISTYHVDSVKGRFTISRDNSKNTLYLQMNSLRAEDTAIYYCTKNHDYHGMDVWGQGTTVTVSS
# VL: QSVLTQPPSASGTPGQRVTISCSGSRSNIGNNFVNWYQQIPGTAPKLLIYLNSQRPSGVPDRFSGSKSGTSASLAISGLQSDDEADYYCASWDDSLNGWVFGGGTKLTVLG
# notes: human IgG1 (L234A/L235A/D265S), lambda, 2H:2L; from OmniChicken
# B4: VGFB71 (antibody, human IgG1, lambda, L234A L235A, V domains shown)
# VH: EVQLLESGGGLVQPGGSLRLSCEASGFIFRDYNMNWVRQAPGKGLEWVSIITNDGSSTAYSDSVKGRFTISRDNSKNSLYLQMNSLRAEDTAIYYCVKVYYGMDDWGQGTTVTVSS
# VL: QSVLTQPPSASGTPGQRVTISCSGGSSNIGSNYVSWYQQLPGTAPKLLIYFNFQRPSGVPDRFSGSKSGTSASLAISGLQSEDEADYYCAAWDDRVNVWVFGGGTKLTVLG
# notes: as for B1
# Target: T3, human VEGFR1, full length, over-expressed on cells (human, UniProt P17948 27-1338)
# T3 construct: on CHO-K1 or HEK cells; also called hVEGFR1; CHOK1/ human VEGFR1
# Test: flow cytometry, CHOK1 cells over-expressing human VEGFR1; competitor biotinylated VEGF A (500 pM)
# Protocol: Ligand blocking on cells was determined as follows: Cell Trace Violet CSFE (ThermoFisher Scientific) stained cells were plated at 15,000 cells per well (30 μL/well; CHO parental or CHO cells engineered to over-express human VEGFR1) in FACS staining buffer. An equivalent volume of serially diluted test antibody was applied to the cells and incubated for one hour at 4° C. Cells were washed twice with 200 μL/well of stain buffer followed by the addition of 100 μL/well of biotinylated VEGF A ligand (500 pM). The cells were incubated at 4° C. for another hour followed by the addition of 50 µL/well of AF647-conjugated streptavidin (3 nM). The plate was incubated at 4° C. for 30 min protected from light, washed twice with 200 μL/well of stain buffer, collected by centrifugation, resuspended in running buffer containing Sytox Blue live/dead stain and then read on an Intellicyt iQue Plus flow cytometer. Data was fit to obtain IC₅₀ values. Percent ligand blocking was calculated for each concentration of each test antibody and IC50 values were determined (Table 25).
# T3 sequence (P17948 27-1338 limits assumed): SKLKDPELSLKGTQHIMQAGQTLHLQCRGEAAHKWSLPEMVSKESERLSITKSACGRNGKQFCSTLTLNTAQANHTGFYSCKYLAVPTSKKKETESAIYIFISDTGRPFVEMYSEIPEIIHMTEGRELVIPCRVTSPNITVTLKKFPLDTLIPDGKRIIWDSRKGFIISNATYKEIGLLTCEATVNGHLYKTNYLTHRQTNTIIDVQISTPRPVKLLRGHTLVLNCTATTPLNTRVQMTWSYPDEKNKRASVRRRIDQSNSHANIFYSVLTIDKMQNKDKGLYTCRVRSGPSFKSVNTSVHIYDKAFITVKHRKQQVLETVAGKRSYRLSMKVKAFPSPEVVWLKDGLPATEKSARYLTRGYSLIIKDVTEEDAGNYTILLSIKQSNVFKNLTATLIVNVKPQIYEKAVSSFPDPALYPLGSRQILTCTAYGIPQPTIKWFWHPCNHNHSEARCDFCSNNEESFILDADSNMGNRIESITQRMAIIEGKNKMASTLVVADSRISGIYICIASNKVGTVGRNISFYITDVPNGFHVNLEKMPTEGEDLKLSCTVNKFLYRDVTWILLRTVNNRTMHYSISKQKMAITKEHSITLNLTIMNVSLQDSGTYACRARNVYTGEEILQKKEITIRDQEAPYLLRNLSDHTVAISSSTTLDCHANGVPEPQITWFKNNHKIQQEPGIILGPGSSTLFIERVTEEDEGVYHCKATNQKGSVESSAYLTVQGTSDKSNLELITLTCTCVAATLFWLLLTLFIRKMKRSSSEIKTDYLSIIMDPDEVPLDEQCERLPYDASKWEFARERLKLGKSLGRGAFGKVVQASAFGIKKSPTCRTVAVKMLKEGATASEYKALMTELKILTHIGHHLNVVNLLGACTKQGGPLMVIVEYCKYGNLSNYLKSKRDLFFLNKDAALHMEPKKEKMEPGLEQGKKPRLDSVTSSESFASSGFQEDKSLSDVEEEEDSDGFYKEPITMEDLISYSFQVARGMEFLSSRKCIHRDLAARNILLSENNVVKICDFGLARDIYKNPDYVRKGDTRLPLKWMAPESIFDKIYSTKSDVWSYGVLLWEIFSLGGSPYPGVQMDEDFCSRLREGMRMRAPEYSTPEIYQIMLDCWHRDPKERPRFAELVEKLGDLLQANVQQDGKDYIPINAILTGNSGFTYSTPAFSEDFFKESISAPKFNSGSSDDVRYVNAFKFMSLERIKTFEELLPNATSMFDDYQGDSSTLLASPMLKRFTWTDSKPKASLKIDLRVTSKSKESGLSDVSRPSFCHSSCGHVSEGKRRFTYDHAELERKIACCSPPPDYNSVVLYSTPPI
row,Binder,IC50 [nM]
1,B1,0.683
2,B2,0.198
3,B3,0.0727
4,B4,0.0795

# Target: T1, mouse VEGFR1 (soluble antigen of the …)
# Test: SPR
row,Binder,Kd
1,B1,0.004 nM and < 0.006 nM
2,B2,0.01 nM
3,B3,5.3 nM

# Target: T2, Recombinant mouse VEGFR1-Fc (R&D …)
# Test: MSD ECL competition on plate-bound mouse VEGFR1-Fc; competitor biotin mouse VEGFA164 (0.2 nM)
# In short: (§1)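 MSD 384 plates were coated with Protein A/G or anti-His mAb, blocked with Blocker A, and used to capture human or mouse VEGFR1-Fc or His-tagged cyno VEGFR1 at 0.5 ug/ml for 1 hour at room temperature. Antibody in half-log dilutions was pre-incubated for 30 minutes, after which biotinylated VEGFA (0.2 nM) or PlGF (2 nM) was added. Bound ligand was detected with Sulfo-tagged streptavidin on an MSD SECTOR S 600 imager, and IC50 and maximal percent inhibition were derived from the electro-chemiluminescence signal.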
Binder,IC50 [nM],Max % Inh. [%]
B1,0.183,101
B2,0.04,99.8
B3,0.026,100

# Target: T4, Recombinant human VEGFR1-Fc (R&D Systems) (human, UniProt P17948 27-687, limits assumed)
# T4 construct: bought; not shown: Fc part of the bought fusion, not described
# Test: MSD ECL competition on plate-bound human VEGFR1-Fc; competitor biotin human VEGFA165 (0.2 nM)
# In short: as §1
# T4 sequence (P17948 27-687 limits assumed): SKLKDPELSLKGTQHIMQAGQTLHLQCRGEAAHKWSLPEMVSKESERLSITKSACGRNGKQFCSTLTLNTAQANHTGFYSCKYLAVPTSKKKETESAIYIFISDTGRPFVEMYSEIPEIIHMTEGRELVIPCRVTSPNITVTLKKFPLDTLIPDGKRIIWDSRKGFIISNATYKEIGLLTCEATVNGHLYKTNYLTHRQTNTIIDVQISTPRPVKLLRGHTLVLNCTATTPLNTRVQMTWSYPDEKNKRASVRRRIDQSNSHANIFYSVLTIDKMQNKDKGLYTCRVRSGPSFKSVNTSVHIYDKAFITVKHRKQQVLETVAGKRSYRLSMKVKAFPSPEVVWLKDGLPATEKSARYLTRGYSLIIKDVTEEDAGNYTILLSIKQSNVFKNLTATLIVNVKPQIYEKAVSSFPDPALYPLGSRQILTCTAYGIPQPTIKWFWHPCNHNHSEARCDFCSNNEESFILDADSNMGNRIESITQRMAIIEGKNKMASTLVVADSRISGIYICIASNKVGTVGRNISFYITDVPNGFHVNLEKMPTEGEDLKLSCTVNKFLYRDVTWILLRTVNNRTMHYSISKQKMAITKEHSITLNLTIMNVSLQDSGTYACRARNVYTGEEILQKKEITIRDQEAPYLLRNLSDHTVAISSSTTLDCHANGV
Binder,IC50 [nM],Max % Inh. [%]
B1,0.252,99.9
B2,0.152,99.9
B3,0.141,99.9

# Target: His tagged cyno VEGFR1 (cynomolgus monkey, UniProt A0A2K5VAF2 27-758)
# Test: MSD ECL competition on plate-bound His-tagged cyno VEGFR1; competitor biotin human VEGFA165 (0.2 nM)
# In short: as §1
Binder,IC50 [nM],Max % Inh. [%]
B1,0.134,98.6
B2,0.081,99
B3,0.089,98.6

# Target: T2, Recombinant mouse VEGFR1-Fc (R&D …)
# Test: MSD ECL competition on plate-bound mouse VEGFR1-Fc; competitor biotin PlGF (2 nM)
# In short: as §1
Binder,IC50 [nM],Max % Inh. [%]
B1,0.243,100
B2,0.221,100
B3,0.24,98.4
